From patent publication US20060035214, “Screening methods for identifying inhibitors of herpesviral replication” (IRM LLC, a Delaware Limited Liability Company, published 2006) come the findings set out here.

In one data set the target is CDP (CUX1) (UniProt P39880 P39880:1-1505). Description: EMSA. The note with it: tags: pCITE-CDP, TNT reticulocyte lysate; label: radiolabel.
Data set [1] addresses T1, PDX1 (UniProt P52945 P52945:1-283). Description: EMSA; positive control. As to conditions: tags: pCITE-PDX1, TNT reticulocyte lysate; label: radiolabel.
The target of another data set is T2, SATB1 (UniProt Q01826 Q01826:1-763).
T2 sequence: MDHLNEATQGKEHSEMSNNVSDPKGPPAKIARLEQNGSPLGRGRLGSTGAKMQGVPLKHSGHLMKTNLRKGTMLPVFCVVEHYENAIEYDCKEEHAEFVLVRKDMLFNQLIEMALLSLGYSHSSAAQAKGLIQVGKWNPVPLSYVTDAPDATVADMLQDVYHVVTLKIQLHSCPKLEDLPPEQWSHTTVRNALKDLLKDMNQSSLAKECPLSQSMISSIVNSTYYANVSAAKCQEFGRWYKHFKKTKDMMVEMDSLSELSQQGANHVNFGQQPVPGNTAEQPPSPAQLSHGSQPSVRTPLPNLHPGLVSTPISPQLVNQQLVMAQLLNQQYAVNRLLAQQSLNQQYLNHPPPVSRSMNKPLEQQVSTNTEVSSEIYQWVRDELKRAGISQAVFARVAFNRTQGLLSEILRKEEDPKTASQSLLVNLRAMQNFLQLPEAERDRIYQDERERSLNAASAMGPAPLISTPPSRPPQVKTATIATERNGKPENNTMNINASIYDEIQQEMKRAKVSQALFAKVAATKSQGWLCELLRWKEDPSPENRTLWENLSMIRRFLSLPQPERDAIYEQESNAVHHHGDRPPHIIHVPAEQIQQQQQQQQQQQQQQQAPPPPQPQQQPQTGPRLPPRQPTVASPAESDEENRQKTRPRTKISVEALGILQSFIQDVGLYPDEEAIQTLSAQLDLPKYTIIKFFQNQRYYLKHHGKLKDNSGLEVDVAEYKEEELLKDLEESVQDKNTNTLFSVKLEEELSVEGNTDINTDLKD
Description: EMSA. As to conditions: tags: pCITE-SATB1, TNT reticulocyte lysate; label: radiolabel.

The target of data set [2] is T1, PDX1. The experiment in a line: EMSA. As to conditions: tags: pCITE-PDX1, TNT reticulocyte lysate; label: radiolabel. (In general: Mobility shift assays separate free from complexed probe on a gel.)

Sequence of CDP (CUX1) (P39880 whole entry, one chain of several): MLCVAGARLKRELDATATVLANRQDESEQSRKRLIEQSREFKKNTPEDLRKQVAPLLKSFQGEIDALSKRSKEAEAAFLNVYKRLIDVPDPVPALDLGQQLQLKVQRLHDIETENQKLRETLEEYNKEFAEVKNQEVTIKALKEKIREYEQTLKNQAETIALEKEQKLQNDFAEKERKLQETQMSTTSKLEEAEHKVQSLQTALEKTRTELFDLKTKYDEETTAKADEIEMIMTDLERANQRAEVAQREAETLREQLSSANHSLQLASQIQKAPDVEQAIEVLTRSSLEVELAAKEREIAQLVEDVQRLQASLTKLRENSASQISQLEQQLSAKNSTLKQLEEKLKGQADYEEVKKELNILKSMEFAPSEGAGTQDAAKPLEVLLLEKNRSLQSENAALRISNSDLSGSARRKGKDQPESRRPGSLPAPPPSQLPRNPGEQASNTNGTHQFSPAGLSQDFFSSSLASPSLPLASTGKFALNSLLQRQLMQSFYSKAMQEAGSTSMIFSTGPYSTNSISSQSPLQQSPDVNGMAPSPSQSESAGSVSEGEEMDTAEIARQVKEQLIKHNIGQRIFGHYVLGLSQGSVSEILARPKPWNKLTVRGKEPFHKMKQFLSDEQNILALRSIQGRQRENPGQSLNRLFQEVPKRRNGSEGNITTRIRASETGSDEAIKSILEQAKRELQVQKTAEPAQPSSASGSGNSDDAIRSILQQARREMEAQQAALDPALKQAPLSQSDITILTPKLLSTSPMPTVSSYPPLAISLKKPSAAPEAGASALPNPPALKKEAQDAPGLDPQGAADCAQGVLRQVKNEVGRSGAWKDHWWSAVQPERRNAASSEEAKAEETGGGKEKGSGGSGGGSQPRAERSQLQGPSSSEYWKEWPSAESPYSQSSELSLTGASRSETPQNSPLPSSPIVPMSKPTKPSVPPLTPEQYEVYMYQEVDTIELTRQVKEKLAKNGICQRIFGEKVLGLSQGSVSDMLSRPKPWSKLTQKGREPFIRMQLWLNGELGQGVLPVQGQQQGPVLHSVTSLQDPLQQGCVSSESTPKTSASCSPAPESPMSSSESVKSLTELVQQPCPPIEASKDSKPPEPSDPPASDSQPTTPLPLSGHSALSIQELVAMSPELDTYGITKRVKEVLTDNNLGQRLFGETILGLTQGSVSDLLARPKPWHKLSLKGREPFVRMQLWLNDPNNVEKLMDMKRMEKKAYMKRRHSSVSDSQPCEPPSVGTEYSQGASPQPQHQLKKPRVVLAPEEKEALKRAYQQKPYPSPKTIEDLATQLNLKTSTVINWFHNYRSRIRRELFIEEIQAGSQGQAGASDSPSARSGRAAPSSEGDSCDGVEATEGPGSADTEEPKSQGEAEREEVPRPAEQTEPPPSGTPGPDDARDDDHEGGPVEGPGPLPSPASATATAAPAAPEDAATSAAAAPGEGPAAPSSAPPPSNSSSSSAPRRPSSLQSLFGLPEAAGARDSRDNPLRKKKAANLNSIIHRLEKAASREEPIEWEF
T1 sequence (P52945 whole entry, one chain of several): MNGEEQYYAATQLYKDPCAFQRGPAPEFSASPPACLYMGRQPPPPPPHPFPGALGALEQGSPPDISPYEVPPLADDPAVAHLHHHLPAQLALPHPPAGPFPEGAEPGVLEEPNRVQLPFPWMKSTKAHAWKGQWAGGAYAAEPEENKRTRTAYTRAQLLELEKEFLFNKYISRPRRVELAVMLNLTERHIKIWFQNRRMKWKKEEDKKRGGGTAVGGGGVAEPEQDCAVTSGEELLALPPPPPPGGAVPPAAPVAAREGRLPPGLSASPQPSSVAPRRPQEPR

B1: CMV-687 to -640 (dsDNA)
DNA 1: TAAATCAATATTGGCTATTGGCCATTGCATACGTTGTATCTATATCATAATATGTACA
DNA 2: TGTACATATTATGATATAGATACAACGTATGCAATGGCCAATAGCCAATATTGATTTA
Regarding B1, the binding result in the data set with CDP (CUX1) is reported as “binds”.

B2: CMV-593 to -549 (dsDNA)
DNA 1: GGCATTGATTATTGACTAGTTATTAATAGTAATCAATTACGGGGTCATTAGTTCA
DNA 2: TGAACTAATGACCCCGTAATTGATTACTATTAATAACTAGTCAATAATCAATGCC
With B2, the binding result in the data set with CDP (CUX1) and in the data set with PDX1 [1] was “binds” each time.

B3: CMV-639 to -594 (dsDNA)
DNA 1: TATATGTACATTTATATTGGCTCATGTCCAATATGACCGCCATGTTGGCATTGATT
DNA 2: AATCAATGCCAACATGGCGGTCATATTGGACATGAGCCAATATAAATGTACATATA
As to B3, the binding result with SATB1, in the data set with PDX1 [2] and with CDP (CUX1) was “no binding” in each case.
